For test [1], the target named is T1, human CD39 (gene ID 953) (human, UniProt P49961 5-510).
T1 construct: Cell-surface form: transiently or stably transfected HEK cells, PBMCs, AML cell lines; also called native CD39; human CD39 transfected HEK cells
T1 sequence: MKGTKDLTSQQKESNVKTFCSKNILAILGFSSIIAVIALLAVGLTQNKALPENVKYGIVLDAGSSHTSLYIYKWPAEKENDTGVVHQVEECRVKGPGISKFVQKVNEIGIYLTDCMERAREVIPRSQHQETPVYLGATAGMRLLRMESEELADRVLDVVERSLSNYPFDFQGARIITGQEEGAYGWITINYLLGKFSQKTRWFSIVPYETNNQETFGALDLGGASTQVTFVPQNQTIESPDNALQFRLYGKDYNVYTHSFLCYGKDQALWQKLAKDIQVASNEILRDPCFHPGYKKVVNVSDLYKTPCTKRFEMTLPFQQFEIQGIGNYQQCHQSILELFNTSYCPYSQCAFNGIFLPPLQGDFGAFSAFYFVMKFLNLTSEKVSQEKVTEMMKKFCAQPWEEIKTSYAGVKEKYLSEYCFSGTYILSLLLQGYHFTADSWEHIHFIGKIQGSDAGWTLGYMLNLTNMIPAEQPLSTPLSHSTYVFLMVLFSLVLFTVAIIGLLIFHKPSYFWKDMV
Nature of the test: flow cytometry binning on human CD39-expressing cells; competitor: Fam. 3 human IgG hcAb (SB134) in excess. (A flow cytometer gives signals particle by particle.)

For test [2], the target named is T1, human CD39 (gene ID 953). Nature of the test: flow cytometry binning on human CD39-expressing cells; competitor: Fam. 5 human IgG hcAb (SB136) in excess.
For test [3], the target named is T1, human CD39 (gene ID 953). Nature of the test: flow cytometry binning on human CD39-expressing cells; competitor: Fam. 2 human IgG hcAb in excess.
In test [4] the target is T1, human CD39 (gene ID 953). Nature of the test: flow cytometry binning on human CD39-expressing cells; competitor: human IgG hcAb SB24 (Fam. 1) in excess.
The target of test [5] is T1, human CD39 (gene ID 953). Put plainly: Table 1 specificity; binding to human (h) and/or mouse (m) CD39.
Test [6] has as its target T2, mouse CD39 (gene ID 12495) (mouse, UniProt P55772 1-510).
T2 construct: whole, on cells; also called murine CD39; mouse CD39 transfected HEK cells
T2 sequence (looked up): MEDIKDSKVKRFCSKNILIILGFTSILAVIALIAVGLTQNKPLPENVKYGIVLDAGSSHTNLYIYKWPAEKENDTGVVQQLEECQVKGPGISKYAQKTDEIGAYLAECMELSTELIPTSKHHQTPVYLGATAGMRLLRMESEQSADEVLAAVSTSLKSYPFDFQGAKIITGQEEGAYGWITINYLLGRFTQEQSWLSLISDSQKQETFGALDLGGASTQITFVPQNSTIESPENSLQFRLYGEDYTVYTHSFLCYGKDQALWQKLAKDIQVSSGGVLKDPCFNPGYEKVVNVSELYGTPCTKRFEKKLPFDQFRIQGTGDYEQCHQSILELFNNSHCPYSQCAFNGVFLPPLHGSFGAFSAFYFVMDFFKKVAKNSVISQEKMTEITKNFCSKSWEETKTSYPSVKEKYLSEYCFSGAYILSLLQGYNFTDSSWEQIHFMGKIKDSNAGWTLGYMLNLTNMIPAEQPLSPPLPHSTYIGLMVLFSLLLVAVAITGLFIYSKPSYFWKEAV
The description is as above.

Test [7] addresses recombinant human CD39 ectodomain with C-terminal His6x tag (human) (UniProt P49961). Put plainly: BLI (Octet RED96), rabbit IgG hcAb on protein A biosensor, recombinant CD39 ectodomain as analyte at 200 ng/µl. In general terms: BLI is a label-free optical method that tracks binding on a fibre tip over time.
Test [8] addresses T1, human CD39 (gene ID 953). Nature of the test: flow cytometry, rabbit IgG hcAb supernatant on transfected HEK cells.
The target of test [9] is T2, mouse CD39 (gene ID 12495). Put plainly: Table 1 specificity; sorted by binding to human (h) and/or mouse (m) CD39.

As for “monoclonal antibody against CD39, clone eBioA1”, the percent inhibition of binding with human CD39 (gene ID 953) [1] was 5%; with human CD39 (gene ID 953) [2], 75%; with human CD39 (gene ID 953) [3], 8%; in the test with human CD39 (gene ID 953) [4] it was 17%.

B1: SB112 rabbit IgG hcAb (Fc fusion, not shown: a dimerising Fc or GST)
VHH: QVQLQESGGGLVQAGGSLRLSCTASGRSFSSNAMGWFRQAPGKEREFVARINWSGSRTFYTDSVKGRFTISRDNAKNTMYLQMNSLKPEDTAVYYCAADPNYGSSITSGYTYWGQGTQVTVSS
notes: also called l- 14c; family 9
As to B1, the binding result (with human CD39 (gene ID 953) [5]; in test [6]) was “binds” each time.

B2: SB126 rabbit IgG hcAb (Fc fusion, not shown: a dimerising Fc or GST)
VHH: QVQLVESGGGLVQAGDSLRLSCAASGRIPVTTTTAWFRQAPGKEREFVAAIRWNSGDAAYADSAKGRFTISRDSAKNTLYLQMNNLEPEDTAVYYCAAKYSRYAPQSTDYDYWGQGTQVTVSS
notes: also called family 2
For the molecule B2, the off-rate constant (koff) (in general, the rate constant with which the complex falls apart) in [7] stood at 0.048 s⁻¹. The binding result with human CD39 (gene ID 953) [8] is on record as “binds”.

B3: SB127 rabbit IgG hcAb (Fc fusion, not shown: a dimerising Fc or GST)
VHH: QVQLVESGGGLVQAGDSLRLSCAASGRIPVTTTTAWFRQAPGKEREFVAAITWNSGNTNYADSAKGRFTISRDSAKNTLYLQMNNLKPEDTAVYYCAAKYSRYNLQSTDYDYWGQGTQVTVSS
notes: also called family 2
For the molecule B3, in test [7], the koff came out at 0.028 s⁻¹. For the same molecule, in the test with human CD39 (gene ID 953) [8], the binding result is on record as “binds”.

B4: SB128 rabbit IgG hcAb (Fc fusion, not shown: a dimerising Fc or GST)
VHH: QVQLVESGGGLVQAGDSLRLSCAASGRTPITTTTGWFRQAPGKEREFVAAIRWDSGNTNYADSAKGRFTISRDSAKNLLYLQMTNLKPEDTAVYYCAAKYSRYLPQSTDYDYWGQGTQVTVSS
notes: also called l- 14b; family 2
For the molecule B4, the “percent inhibition of binding” value in the test with human CD39 (gene ID 953) [1] worked out at 88%; in the test with human CD39 (gene ID 953) [2], 42%; with human CD39 (gene ID 953) [3] it was 86%; in the test with human CD39 (gene ID 953) [4], 14%. The koff in [7] is 0.011 s⁻¹. Also, the binding result in test [9] is “no binding”.

B5: SB90 rabbit IgG hcAb (Fc fusion, not shown: a dimerising Fc or GST)
VHH: QVQLVESGGGLVQAGGSLRLSCAVSGLNNYAIGWLRQAPGKEREGVSCINCFDDFTYYADSVKGRFTVSCDNANHTVNLEMNSLRPEDTAVYYCAAGTCGSWWRYTPTPADGAWGRGTQVTVSS
notes: also called s+ 17; family 8
Regarding B5, the binding result (with human CD39 (gene ID 953) [5]; in test [6]) was “binds” in each case.

B6: SB135 rabbit IgG hcAb (Fc fusion, not shown: a dimerising Fc or GST)
VHH: QVKLQESGGGLVQAGGSLRLSCTASEESFNKYGVGWFRQAPGKERAFVVAIRPSGVITSYADSVKGRFTISRDSAKNTAYLQMNSLKPEDTALYYCAANSRNTNYYRPNGYDYWGRGTQVTVSS
notes: also called l- 15; family 4
Regarding B6, the “percent inhibition of binding” value came to 53% with human CD39 (gene ID 953) [1], 37% with human CD39 (gene ID 953) [2], 46% with human CD39 (gene ID 953) [3] and 9% with human CD39 (gene ID 953) [4]. In addition, the off-rate constant (koff) in [7] came out at 0.03 s⁻¹. Also, the binding result in test [9] was “no binding”.

B7: SB39 rabbit IgG hcAb (Fc fusion, not shown: a dimerising Fc or GST)
VHH: QVQLVESGGGLVQPGGSLRLSCAASGFTLDYFAIGWFRQGPGKERDWVSCISKDGTTYYIDSVKGRFTISRDNAKNTGYLQMSGLKPDDTAVYYCARGAGGCQSDFGARGQGTQVTVSS
notes: also called l- 11; family 7
Consider B7, for which the “percent inhibition of binding” value in the test with human CD39 (gene ID 953) [1] came to 96%; with human CD39 (gene ID 953) [2], 91%; in the test with human CD39 (gene ID 953) [3], 98%; in the test with human CD39 (gene ID 953) [4], 39%. Moreover, the binding result in test [6] is given as “binds”.

B8: SB137 rabbit IgG hcAb (Fc fusion, not shown: a dimerising Fc or GST)
VHH: QVKLQESGGGLGQAGGSLRLSCSASARTSATYVMGWFRQAPGKEREFVATISRSTSTTYYGDSVKGRFTISRDNAKNAVYLQMNSLKPEDTAVYYCATRAPRYGTASTRLSDYDNWGQGTQVTVSS
notes: also called s- 17; family 6
Consider B8, for which the “percent inhibition of binding” value in the test with human CD39 (gene ID 953) [1] is 95%; with human CD39 (gene ID 953) [2], 39%; with human CD39 (gene ID 953) [3], 93%; with human CD39 (gene ID 953) [4], -11%. Further, in test [9], the binding result was “no binding”.

B9: SB134 rabbit IgG hcAb (Fc fusion, not shown: a dimerising Fc or GST)
VHH: QVKLQESGGGWVQPGGSLRLSCAASGFTFRTHFMSWVRQAPGQGLEWVSGITSGGRTSYVDSVKGRFTISRDNAANTLYLQMNSLKPEDTAVYFCTKGDSGARGQGTQVTVSS
notes: also called l- 5a; family 3
B9: the “percent inhibition of binding” value with human CD39 (gene ID 953) [1] stood at 58%; with human CD39 (gene ID 953) [2], 41%; in the test with human CD39 (gene ID 953) [4], 15%. Also, in test [7], the koff stood at 0.012 s⁻¹. Moreover, in test [9], the binding result was “no binding”.

B10: SB136 rabbit IgG hcAb (Fc fusion, not shown: a dimerising Fc or GST)
VHH: DVQLQASGGGLVQPGGSLRLSCAASGFRFSIYDMSWVRRPPGKGLEWVSSITSPGGTTYADSVKGRFTISRDNDKNTLYLQMNSLKPEDTAIYYCAKAYGGRSVVAQTARGQGTQVTVSS
notes: also called s- 12; family 5
For B10, the “percent inhibition of binding” value was 0% with human CD39 (gene ID 953) [1], 75% with human CD39 (gene ID 953) [2], 16% with human CD39 (gene ID 953) [3] and -11% in the test with human CD39 (gene ID 953) [4]. The off-rate constant (koff) in [7] worked out at 0.0012 s⁻¹. For the same molecule, the binding result in test [9] was “no binding”.

B11: SB32 rabbit IgG hcAb (Fc fusion, not shown: a dimerising Fc or GST)
VHH: QVQLVESGGGLVQAGGSLRLSCAVSKRTSTHYAMGWFRQAPGLVREFVGVINWNGGTTYYADSVKGRFFISRDNAKNTMALQMNNLKPEDTAVYYCALKVDGLGLTSNEYQHWGQGTQVTVSS
notes: also called l- 14d; family 10
For B11, the binding result (with human CD39 (gene ID 953) [5]; in [6]) was “binds” throughout.

B12: SB27 rabbit IgG hcAb (Fc fusion, not shown: a dimerising Fc or GST)
VHH: QVQLVESGGGLVQPGGSLRLSCAASGSIFSFNAMGWYRQAPGKQRELVAAITSGGSTNYADSVKGRFTISRDNAKNTVYLQMNSLKPEDTAVYYCNGIGGSTWFGEDEYDYWGQGTQVTVSS
notes: also called family 1
Consider B12, for which the koff in test [7] turned out to be 0.0031 s⁻¹. Moreover, the binding result with human CD39 (gene ID 953) [8] is reported as “binds”.

B13: SB132 rabbit IgG hcAb (Fc fusion, not shown: a dimerising Fc or GST)
VHH: QVQLVESGGGLVQPGGSLRLSCAASGSIFNFNAMGWYRQASGKQRELVAAITSGGSTNYADSVKGRFTISRGNAKNTVYLQMNSLKPEDTAVYYCHGIGGSTWFGEEEYDSWGQGTQVTVSS
notes: also called family 1
Take B13: in test [7], the off-rate (koff) came out at 0.0011 s⁻¹. The binding result with human CD39 (gene ID 953) [8] was “binds”.

B14: SB131 rabbit IgG hcAb (Fc fusion, not shown: a dimerising Fc or GST)
VHH: QVQLVESGGGLVQPGGSLRLSCAASESIVSFNAMGWYRQAPGKQRDLVAAITSGGRTNYAESVKGRFTISRDDAKNTVYLQMNSLKPEDTAVYYCHAIGGSTWFGEDEPDYWGQGTQVTVSS
notes: also called family 1
Take B14: in [7], the koff was found to be 0.00084 s⁻¹. Moreover, the binding result in the test with human CD39 (gene ID 953) [8] was “binds”.

B15: SB130 rabbit IgG hcAb (Fc fusion, not shown: a dimerising Fc or GST)
VHH: QVQLVESGGGSVQPGGSLKLSCAASGSISSINAMGWYRQAPGKQRELVAAITSGGYTNYADSVKGRFTISRDNAKNTVYLQMNSLKPEDTAVYYCNAIGGSTWFGEDEYDNWGQGTQVTVSS
notes: also called family 1
For the molecule B15, in test [7], the off-rate (koff) was determined as 0.0015 s⁻¹. The binding result in the test with human CD39 (gene ID 953) [8] is listed as “binds”.

B16: SB24 rabbit IgG hcAb (Fc fusion, not shown: a dimerising Fc or GST)
VHH: QVQLVESGGGLVQPGGSLRLSCAASGSIFSFNAMGWYRQAPGKQRELVAAITSGGNTNYADSVKGRFAISRDNAKNTVYLQMSSLKPEDTAVYYCKGIGGSTWFGEDEPDYWGQGTQVTVSS
notes: Bivalent VHH-Fc heavy chain antibody; also called l- 14a; family 1
As to B16, the “percent inhibition of binding” value with human CD39 (gene ID 953) [1] stood at 40%; in the test with human CD39 (gene ID 953) [2] it was 53%; with human CD39 (gene ID 953) [3] it was 39%; with human CD39 (gene ID 953) [4] it was 99%. For the same molecule, the off-rate (koff) in [7] turned out to be 0.00099 s⁻¹. Moreover, in test [9], the binding result is reported as “no binding”.

(Values after patent publication US20240352144A1 (UNIVERSIT TSKLINIKUM HAMBURG EPPENDORF, published 2024).)
